# Reference: article PMC12442453
# T1: human EPOR ectodomain (ECD) fused to a human Fc domain (EPOR-Fc), P19235
# T1 chain: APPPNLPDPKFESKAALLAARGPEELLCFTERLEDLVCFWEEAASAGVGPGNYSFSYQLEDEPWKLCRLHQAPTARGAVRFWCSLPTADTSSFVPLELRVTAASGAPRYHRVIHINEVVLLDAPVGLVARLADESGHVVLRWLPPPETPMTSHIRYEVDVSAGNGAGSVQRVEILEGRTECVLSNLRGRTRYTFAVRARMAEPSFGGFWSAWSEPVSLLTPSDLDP
# T2: human EPOR, endogenous on TF-1 cells (human (endogenous in TF-1)) (UniProt P19235)
# T2 sequence: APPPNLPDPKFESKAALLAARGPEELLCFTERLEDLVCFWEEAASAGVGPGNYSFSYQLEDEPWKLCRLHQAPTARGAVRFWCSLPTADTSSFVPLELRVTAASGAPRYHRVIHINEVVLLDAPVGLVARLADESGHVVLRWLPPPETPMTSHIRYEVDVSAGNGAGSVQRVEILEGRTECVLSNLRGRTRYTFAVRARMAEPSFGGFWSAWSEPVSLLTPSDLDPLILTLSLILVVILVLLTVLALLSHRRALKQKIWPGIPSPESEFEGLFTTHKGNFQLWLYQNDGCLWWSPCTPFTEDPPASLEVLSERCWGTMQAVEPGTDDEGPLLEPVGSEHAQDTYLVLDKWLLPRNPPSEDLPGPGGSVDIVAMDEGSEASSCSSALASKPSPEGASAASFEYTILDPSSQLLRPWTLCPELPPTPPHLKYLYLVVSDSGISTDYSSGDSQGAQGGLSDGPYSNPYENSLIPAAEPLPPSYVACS
# B1: Db-Fc 1 L:Y109D; L:I116F; H:Y35R; H:I39M; H:Y59H; H:S63G; H:G114S (protein)
# chain 1: EVQLVESGGGLVQPGGSLRLSCAASGFNLRSYYMHWVRQAPGKGLEWVASISPHYGYTYYADSVKGRFTISADTSKNTAYLQMNSLRAEDTAVYYCARHGYSAMDYWGQGTLVTVSS
# chain 2: DIQMTQSPSSLSASVGDRVTITCRASQSVSSAVAWYQQKPGKAPKLLIYSASSLYSGVPSRFSGSRSGTDFTLTISSLQPEDFATYYCQQSSDSLFTFGQGTKVEIK
# B2: Db-Fc 1.3 (Fc fusion)
# VH: EVQLVESGGGLVQPGGSLRLSCAASGFNLRSYYMHWVRQAPGKGLEWVASISPHYGYTYYADSVKGRFTISADTSKNTAYLQMNSLRAEDTAVYYCARHGYSAMDYWGQGTLVTVSS
# VL: DIQMTQSPSSLSASVGDRVTITCRASQSVSSAVAWYQQKPGKAPKLLIYSASSLYSGVPSRFSGSRSGTDFTLTISSLQPEDFATYYCQQSSDSLFTFGQGTKVEIK
# B3: VL–VH 1.1 without an Fc domain (protein)
# VH: EVQLVESGGGLVQPGGSLRLSCAASGFNLRSYYMHWVRQAPGKGLEWVASISPYYSYTYYADSVKGRFTISADTSKNTAYLQMNSLRAEDTAVYYCARHGYGAMDYWGQGTLVTVSS
# VL: DIQMTQSPSSLSASVGDRVTITCRASQSVSSAVAWYQQKPGKAPKLLIYSASSLYSGVPSRFSGSRSGTDFTLTISSLQPEDFATYYCQQSSYSLITFGQGTKVEIK
# Key:
# [1] = biological target: T1, human EPOR ectodomain (ECD) fused to a …; experiment: BLI; details: chain shown with the change; solution-phase Db-Fc, immobilized EPOR-Fc
# [2] = biological target: T2, human EPOR, endogenous on TF-1 cells (human (endogenous in TF-1))
# [3] = biological target: VL–VH 1.1 without an Fc domain; experiment: crystal structure; VL–VH 1.1 alone, space group P21, 2.06 Å, four chains in the asymmetric unit; 20% PEG8000, 100 mM CHES
binder,measurement,setting,value
B1,Kd,[1],3.8 nM
B2,"UT-7/Epo cell proliferation, EC50; Hb-Fc3 fraction of variant 1.3 (putative hexamer)",[2],1.1 nM
same,"UT-7/Epo cell proliferation, EC50; purified Db-Fc fraction of variant 1.3 (putative dimer)",[2],16 nM
same,"UT-7/Epo cell proliferation, EC50; unfractionated Db-Fcmix 1.3",[2],1.8 nM
same,"UT-7/Epo cell proliferation, maximum response; Hb-Fc3 fraction of variant 1.3 (putative hexamer)",[2],3.4e+06 RLU
same,"UT-7/Epo cell proliferation, maximum response; purified Db-Fc fraction of variant 1.3 (putative dimer)",[2],600000 RLU
same,"UT-7/Epo cell proliferation, maximum response; unfractionated Db-Fcmix 1.3",[2],2.5e+06 RLU
B3,stoichiometry N,[3],4
